Data taken from patent US20240092913A1 (HANALL BIOPHARMA, published 2024).
Where a chain is given by its changes, count along the chain named.

B1: HL161A antibody (antibody, human IgG1, V domains shown)
VH: EVQLLESGGGLVQPGGSLRLSCAASEFTFGSCVMTWVRQAPGKGLEWVSVISGSGGSTYYADSVKGRFTISRDNSKNTLYLQMNSLRAEDTAVYYCAKTPWWLRSPFFDYWGQGTLVTVSS
VL: SYVLTQPPSVSVAPGQTARITCGGNNIGSTSVHWYQQKPGQAPVLVVHDDSDRPSGIPERFSGSNSGNTATLTISRVEAGDEADYYCQVRDSSSDHVIFGGGTKLTVLGQPKAAPSVTL
B2: HL161B antibody (antibody, V domains shown)
VH: QLLLQESGPGLVKPSETLSLTCTVSGGSLSSSFSYWVWIRQPPGKGLEWIGTIYYSGNTYYNPSLKSRLTISVDTSKNHFSLNLSSVTAADTAVYYCARRAGILTGYLDSWGQGTLVTVSS
VL: B1 VL with P7S, T30K, H48Y, G63A, R90W, I98V
notes: the VL entry runs a few residues into the constant region
B3: HL161C antibody (antibody, human IgG1, V domains shown)
VH: QVQLVQSGAEVKKPGASVKVSCKASGYTFTGCYMHWVRQAPGQGLEWMGRINPNSGGTNYAQKFQGRVTMTRDTSISTAYMDLSRLRSDDTAVYYCARDYSGWSFDYWGQGTLVTVSS
VL: DIQMTQSPSSLSASVGDRVTITCRASQGISNYLAWFQQKPGKAPKSLIYAASSLQSGVPSKFSGSGSGTDFTLTISSLQSEDFATYYCQQYDSYPPTFGGGTKVEIKRTVAAPSVFI
B4: HL161D antibody (antibody, human IgG1, V domains shown)
VH: QLQLQESGPGLVKPSETLSLTCTVSGGSISSSSYYWGWIRQPPGKGLEWIGNIYYSGSTYYNPSLMSRVTISVDTSKNQFSLKLSSVTAADTAVYYCARQLSYNWNDRLFDYWGQGTLVTVSS
VL: SYELTQPLSVSVALGQTARITCGGNNIGSKNVHWYQQKPGQAPVLVIYRDSNRPSGIPERFSGSNSGNTATLTISRAQAGDEADYYCQVWDSSTVVFGGGTKLTVLGQPKAAPSVTL
notes: as for B2

target: T1, water-soluble hFcRn (human, UniProt P55899 24-297; P61769 21-119, limits assumed); assay: SPR (Proteon XPR36, GLC chip), shFcRn immobilised, antibody as analyte, pH 6.0, 1:1 Langmuir, mean of six runs
T1 construct: also called shFcRn; human FcRn
T1 sequence (P55899 24-297 limits assumed, chain 1 of 2): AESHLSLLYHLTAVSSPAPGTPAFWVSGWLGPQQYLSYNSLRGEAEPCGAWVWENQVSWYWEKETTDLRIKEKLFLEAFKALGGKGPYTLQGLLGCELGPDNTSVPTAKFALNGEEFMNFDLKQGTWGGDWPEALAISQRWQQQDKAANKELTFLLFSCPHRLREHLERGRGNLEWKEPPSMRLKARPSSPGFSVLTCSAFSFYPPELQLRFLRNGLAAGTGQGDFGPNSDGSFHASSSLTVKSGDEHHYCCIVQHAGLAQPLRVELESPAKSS
T1 sequence (P61769 21-119 limits assumed, chain 2 of 2): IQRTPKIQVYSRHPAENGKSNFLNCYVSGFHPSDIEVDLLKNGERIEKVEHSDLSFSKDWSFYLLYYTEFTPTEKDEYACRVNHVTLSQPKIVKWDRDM
Protocol: (§1) In kinetic analysis, a 1:1 Langmuir binding model was used, the analysis was repeated six times at each of pH 6.0 and pH 7.4, and the mean KD value was calculated. […], the chip was activated under the conditions of EDAC/NHS 0.5×, 30 μL/min and 300 sec. For immobilization, shFcRn was diluted in acetate buffer (pH 5.5) to concentrations of 2 μg/mL and 250 μL, and the dilution was allowed to flow on the chip at a rate of 30 μL/min. When an immobilization level of 200-300 RU was reached, the reaction was stopped. Then, deactivation was performed using ethanolamine at a rate of 30 μL/min for 300 sec. […] Sample dilution was performed using 1× PBST (pH 7.4) or 1× PBST (pH 6.0) at each pH. For sample analysis, association was performed at 50 μL/min for 200 sec, and the dissociation step was performed at 50 μL/min for 600 sec, after which regeneration was performed using glycine buffer (pH 2.5) at 100 μL/min for 18 sec. The kinetic analysis of each sample was repeated six times, and then the mean antigen binding affinity (KD) was measured.

Binder	Kd	koff	kon
B1	0.18 nM	0.000326 s⁻¹	1.81e+06 M⁻¹ s⁻¹
B2	0.807 nM	0.000735 s⁻¹	912000 M⁻¹ s⁻¹
B3	0.191 nM	0.000332 s⁻¹	1.74e+06 M⁻¹ s⁻¹
B4	1.43 nM	0.00138 s⁻¹	970000 M⁻¹ s⁻¹

target: T1, water-soluble hFcRn; assay: SPR (Proteon XPR36, GLC chip), shFcRn immobilised, antibody as analyte, pH 7.4, 1:1 Langmuir, mean of six runs
Protocol: as §1

Binder	Kd	koff	kon
B1	0.247 nM	0.000327 s⁻¹	1.32e+06 M⁻¹ s⁻¹
B2	1.76 nM	0.00125 s⁻¹	710000 M⁻¹ s⁻¹
B3	0.232 nM	0.000316 s⁻¹	1.36e+06 M⁻¹ s⁻¹
B4	1.78 nM	0.00124 s⁻¹	699000 M⁻¹ s⁻¹

target: T2, human FcRn on human FcRn-expressing stable HEK293 cells (human, UniProt P55899 24-365; P61769 21-119); assay: FACS on human FcRn-expressing stable HEK293 cells, pH 7.4, 0.11-250 nM antibody, 4 parameter logistic regression of MFI
T2 construct: also called hFcRn-expressing HEK293 cells; human FcRn-overexpressing HEK293 cells
T2 sequence (P55899 24-365 limits assumed, chain 1 of 2): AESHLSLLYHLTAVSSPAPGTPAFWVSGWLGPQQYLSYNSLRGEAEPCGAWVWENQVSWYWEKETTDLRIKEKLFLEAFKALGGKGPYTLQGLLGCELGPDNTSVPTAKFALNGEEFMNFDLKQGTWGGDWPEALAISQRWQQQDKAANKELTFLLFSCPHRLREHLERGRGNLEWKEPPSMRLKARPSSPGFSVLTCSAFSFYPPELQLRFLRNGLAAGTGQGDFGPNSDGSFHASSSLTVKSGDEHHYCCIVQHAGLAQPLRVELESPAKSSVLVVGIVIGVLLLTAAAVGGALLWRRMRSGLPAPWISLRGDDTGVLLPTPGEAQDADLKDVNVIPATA
T2 sequence (P61769 21-119 limits assumed, chain 2 of 2): as the sequence (P61769 21-119 limits assumed, chain 2 of 2) above
Protocol: The plate was mounted in a rotator at 4° C. and rotated at an angle of 15° and 10 rpm for 90 minutes. […] The FACS measurement was performed under the following conditions: FS 108 volts, SS 426 volts, FL1 324 volts, FL2 300 volts. These cells were analyzed by FACS using BD FACSDiva™ v6.1.3 software (BD Bioscience).

Binder	EC50
B1	2.46 nM
B2	1.2 nM

target: T2, human FcRn on human FcRn-expressing …; assay: FACS competition on human FcRn-overexpressing HEK293 cells, pH 6.0, blocking of Alexa488-hIgG1, antibody 0.01-200 nM, 4-parameter logistic regression
Protocol: Each antibody sample was diluted to 400 nM, and then diluted by 4-fold serial dilution in a 96-well v-bottom plate. 50 μL of the sample diluted to a final concentration of 200 nM to 0.01 nM was added to each well. […] Finally, 40 μL of cells diluted to a cell concentration of 2.5×10⁶ cells/mL were added to each well and suspended. The plate was mounted in a rotator at 4° C. and rotated at an angle of 15° and 10 rpm for 90 minutes. After completion of the reaction, the plate was taken out of the rotator, and centrifuged at 2000 rpm for 10 minutes to remove the supernatant. 100 μL of reaction buffer was added to each well to dissolve the cell pellets, and the plate was transferred into a blue test tube. Then, 200 μL of reaction buffer was added to each well, and measurement was performed in FACS. The FACS measurement was performed under the following conditions: FS 108 volts, SS 426 volts, FL1 324 volts, FL2 300 volts. These cells were analyzed by FACS using BD FACSDiva™ v6.1.3 software (BD Bioscience). The results were expressed as mean fluorescence intensity (MFI). The MFI of the test group was processed after subtracting the measured MFI value of the cells alone (background signal).

Binder	IC50
B1	0.92 nM
B2	2.24 nM
